The EC50 is the midpoint of the concentration-response curve. A low value points to an effect from little substance.

This note sets out measurements from patent US20210147570A1.

The target in experiment [1] is human CD73 (cell-surface) (human) (UniProt P21589). Put plainly: cell-based or functional assay.
For experiment [2] the target is unchanged. Put plainly: CD73 binding in cell lines (human), EC50 range; method not stated.
Experiment [3] shares this target. In words: CD73 binding in cell lines (human), median EC50; method not stated.

human CD73 (cell-surface) (human), sequence (P21589 27-549): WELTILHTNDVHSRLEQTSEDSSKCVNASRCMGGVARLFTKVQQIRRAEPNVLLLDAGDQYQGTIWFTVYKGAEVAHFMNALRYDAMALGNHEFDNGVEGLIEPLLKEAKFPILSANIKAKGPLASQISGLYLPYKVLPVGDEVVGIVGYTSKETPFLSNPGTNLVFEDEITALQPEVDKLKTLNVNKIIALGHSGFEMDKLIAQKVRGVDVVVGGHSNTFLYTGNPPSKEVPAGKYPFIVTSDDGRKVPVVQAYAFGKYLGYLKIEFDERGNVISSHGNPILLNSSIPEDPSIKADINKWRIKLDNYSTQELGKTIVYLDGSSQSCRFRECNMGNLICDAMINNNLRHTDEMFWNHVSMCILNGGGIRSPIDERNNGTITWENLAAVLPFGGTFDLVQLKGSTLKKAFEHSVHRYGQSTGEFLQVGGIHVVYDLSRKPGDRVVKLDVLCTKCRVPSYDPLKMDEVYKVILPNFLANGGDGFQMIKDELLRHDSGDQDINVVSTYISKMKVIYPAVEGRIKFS

B1: CD73.4-IgG2C219S.IgG1.1f (antibody, V domains shown)
VH: QVQLVESGGGVVQPGRSLRLSCAASGFTFSNYGMHWVRQAPGKGLEWVAVILYDGSNKYYPDSVKGRFTISRDNSKNTLYLQMNSLRAEDTAVYYCARGGSSWYPDSFDIWGQGTMVTVSS
VL: DIQMTQSPSSLSASVGDRVTITCRASQGISSWLAWYQQKPEKAPKSLIYAASSLQSGVPSRFSGSGSGTDFTLTISSLQPEDFATYYCQQYNSYPLTFGGGTKVEIKR
Regarding B1, in experiment [1], the Cellular Enzyme Inhibition (blockade of AMP processing), median EC50 was found to be 0.39 nM; the Internalization, max level came to 97.5%; the Internalization, median EC50 amounted to 1.2 nM. The molecule also had a half-maximal effective concentration (EC50) in experiment [2] of 0.3 to 0.67 nM. The molecule also registered an EC50 in experiment [3] of 0.5 nM.
